# Experimental data as given in article PMC8386121.
# Biological target: recombinant human PD-L1-Fc fusion protein (dimeric form) (human)
# Test: SEC; SE-HPLC of the two bought PD-L1 ligands (Supplementary Figure S1); conditions not given
substance,measurement,value
recombinant human PD-L1-Fc fusion protein (dimeric form),stoichiometry N,2
